Blank lines part the entries; values can stand above or below the binder they belong to.
Legend:
Assay in all cases: holdup assay
Design in all cases: key: below the threshold = too weak to quantify, mostly under pKd 3.1 to 4
AHNAK1, Q09666 = molecular target: AHNAK1, Q09666
APBA1_2, Q02410 = molecular target: T1, APBA1_2, Q02410
T1 sequence (Q02410 742-832, limits assumed, looked up): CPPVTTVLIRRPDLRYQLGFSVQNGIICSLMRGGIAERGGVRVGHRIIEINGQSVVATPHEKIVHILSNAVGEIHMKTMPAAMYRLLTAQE

APBA2_1, Q99767 = molecular target: T2, APBA2_1, Q99767
T2 sequence (Q99767 563-664, limits assumed, looked up): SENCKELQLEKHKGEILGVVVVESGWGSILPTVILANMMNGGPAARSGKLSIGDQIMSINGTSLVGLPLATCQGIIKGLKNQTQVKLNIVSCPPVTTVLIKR

APBA3_1, O96018 = molecular target: T3, APBA3_1, O96018
T3 sequence (O96018 389-490, limits assumed, looked up): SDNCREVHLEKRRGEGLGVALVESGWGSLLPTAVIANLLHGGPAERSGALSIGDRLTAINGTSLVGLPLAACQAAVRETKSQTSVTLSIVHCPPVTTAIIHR

CARD11, Q9BXL7 = molecular target: T4, CARD11, Q9BXL7
T4 sequence (Q9BXL7 662-765, limits assumed, looked up): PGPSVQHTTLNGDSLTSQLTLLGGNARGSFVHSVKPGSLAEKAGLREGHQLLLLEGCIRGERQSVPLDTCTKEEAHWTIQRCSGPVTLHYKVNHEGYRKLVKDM

CASK, O14936 = molecular target: CASK, O14936
CASK, O14936, sequence (O14936 487-570): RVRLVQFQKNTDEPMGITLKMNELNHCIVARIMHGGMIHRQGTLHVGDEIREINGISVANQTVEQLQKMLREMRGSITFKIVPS

GORASP1, Q9BQQ3 = molecular target: GORASP1, Q9BQQ3
GORASP1, Q9BQQ3, sequence (Q9BQQ3 1-208): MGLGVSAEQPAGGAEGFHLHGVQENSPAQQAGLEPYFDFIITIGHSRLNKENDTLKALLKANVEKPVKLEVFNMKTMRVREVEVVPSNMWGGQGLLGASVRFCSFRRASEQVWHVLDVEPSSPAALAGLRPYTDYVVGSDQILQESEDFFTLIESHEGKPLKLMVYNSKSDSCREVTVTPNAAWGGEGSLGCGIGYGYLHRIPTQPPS

GRASP, Q7Z6J2 = molecular target: GRASP, Q7Z6J2
GRASP, Q7Z6J2, sequence (Q7Z6J2 96-193): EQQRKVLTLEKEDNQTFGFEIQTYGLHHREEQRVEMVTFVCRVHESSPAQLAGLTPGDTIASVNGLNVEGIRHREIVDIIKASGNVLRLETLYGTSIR

GRIP1_2, Q9Y3R0 = molecular target: T5, GRIP1_2, Q9Y3R0
T5 sequence (Q9Y3R0 145-248, limits assumed, looked up): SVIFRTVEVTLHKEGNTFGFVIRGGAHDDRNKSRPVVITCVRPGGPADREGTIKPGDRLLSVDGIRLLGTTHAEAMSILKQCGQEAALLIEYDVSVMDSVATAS

GRIP1_4, Q9Y3R0 = molecular target: T6, GRIP1_4, Q9Y3R0
T6 sequence (Q9Y3R0 467-571, limits assumed, looked up): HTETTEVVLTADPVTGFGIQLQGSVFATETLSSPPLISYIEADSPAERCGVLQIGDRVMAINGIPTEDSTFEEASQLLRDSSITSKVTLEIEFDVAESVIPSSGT

HTRA2, O43464 = molecular target: HTRA2, O43464
HTRA2, O43464, sequence (O43464 355-458): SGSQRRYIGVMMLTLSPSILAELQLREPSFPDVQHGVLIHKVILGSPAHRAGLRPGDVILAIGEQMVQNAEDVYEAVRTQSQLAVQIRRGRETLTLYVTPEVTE

Inadl_3, Q8NI35 = molecular target: Inadl_3, Q8NI35
Inadl_3, Q8NI35, sequence (Q8NI35 359-469): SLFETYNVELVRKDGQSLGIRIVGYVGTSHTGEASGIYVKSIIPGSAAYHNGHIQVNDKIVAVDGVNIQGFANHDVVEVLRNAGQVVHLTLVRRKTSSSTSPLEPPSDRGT

Inadl_5, Q8NI35 = molecular target: Inadl_5, Q8NI35
Inadl_5, Q8NI35, sequence (Q8NI35 673-780): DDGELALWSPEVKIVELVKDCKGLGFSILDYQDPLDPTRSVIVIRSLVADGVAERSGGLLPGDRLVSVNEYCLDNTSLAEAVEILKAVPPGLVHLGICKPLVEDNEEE

LNX1_2, Q8TBB1 = molecular target: LNX1_2, Q8TBB1
LNX1_2, Q8TBB1, sequence (Q8TBB1 371-470): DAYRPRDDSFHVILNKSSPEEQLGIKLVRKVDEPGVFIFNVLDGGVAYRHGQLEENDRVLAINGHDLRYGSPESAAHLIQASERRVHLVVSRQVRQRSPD

LNX2_2, Q8N448 = molecular target: T7, LNX2_2, Q8N448
T7 sequence (Q8N448 334-432, limits assumed, looked up): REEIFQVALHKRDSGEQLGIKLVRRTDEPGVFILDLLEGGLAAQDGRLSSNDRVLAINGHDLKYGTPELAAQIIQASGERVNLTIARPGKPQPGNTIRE

MAGI2_5, Q86UL8 = molecular target: MAGI2_5, Q86UL8
MAGI2_5, Q86UL8, sequence (Q86UL8 915-1017): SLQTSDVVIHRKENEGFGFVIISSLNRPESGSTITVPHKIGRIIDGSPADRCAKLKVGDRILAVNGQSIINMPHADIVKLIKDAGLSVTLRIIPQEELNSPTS

MAST1, Q9Y2H9 = molecular target: MAST1, Q9Y2H9
MAST1, Q9Y2H9, sequence (Q9Y2H9 962-1065): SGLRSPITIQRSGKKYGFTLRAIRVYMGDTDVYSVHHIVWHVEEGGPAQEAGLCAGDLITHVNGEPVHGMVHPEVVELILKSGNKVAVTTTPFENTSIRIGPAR

MPDZ_12, O75970 = molecular target: T8, MPDZ_12, O75970
T8 sequence (O75970 1857-1958, limits assumed, looked up): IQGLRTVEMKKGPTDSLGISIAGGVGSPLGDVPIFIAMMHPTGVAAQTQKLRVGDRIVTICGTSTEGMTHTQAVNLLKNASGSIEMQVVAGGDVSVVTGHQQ

MPP7, Q5T2T1 = molecular target: T9, MPP7, Q5T2T1
T9 sequence (Q5T2T1 134-230, limits assumed, looked up): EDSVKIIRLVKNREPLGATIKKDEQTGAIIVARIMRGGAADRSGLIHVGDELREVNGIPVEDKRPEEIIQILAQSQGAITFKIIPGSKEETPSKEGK

NHERF3_3, Q5T2W1 = molecular target: T10, NHERF3_3, Q5T2W1
T10 sequence (Q5T2W1 238-333, limits assumed, looked up): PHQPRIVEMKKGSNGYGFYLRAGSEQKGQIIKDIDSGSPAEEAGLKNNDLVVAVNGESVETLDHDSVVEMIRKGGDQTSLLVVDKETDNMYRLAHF

PDZD7_3, Q9H5P4 = molecular target: T11, PDZD7_3, Q9H5P4
T11 sequence (Q9H5P4 857-944, limits assumed, looked up): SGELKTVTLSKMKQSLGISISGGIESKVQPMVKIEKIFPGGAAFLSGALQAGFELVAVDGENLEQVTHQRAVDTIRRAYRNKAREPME

PTPN13_1, Q12923 = molecular target: T12, PTPN13_1, Q12923
T12 sequence (Q12923 1088-1188, limits assumed, looked up): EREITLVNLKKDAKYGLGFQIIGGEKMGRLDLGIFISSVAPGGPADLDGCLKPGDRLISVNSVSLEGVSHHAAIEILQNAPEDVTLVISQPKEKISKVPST

RADIL, Q96JH8 = molecular target: T13, RADIL, Q96JH8
T13 sequence (Q96JH8 971-1071, limits assumed, looked up): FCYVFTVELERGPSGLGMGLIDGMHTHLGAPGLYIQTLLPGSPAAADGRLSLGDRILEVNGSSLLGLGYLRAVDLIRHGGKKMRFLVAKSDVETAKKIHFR

TJP1_2, Q07157 = molecular target: TJP1_2, Q07157
TJP1_2, Q07157, sequence (Q07157 181-274): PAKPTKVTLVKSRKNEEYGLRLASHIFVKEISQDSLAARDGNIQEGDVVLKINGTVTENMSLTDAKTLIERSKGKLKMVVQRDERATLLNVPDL

[1] = plain residues with an end cap or a label only (N-terminal biotin on a linker: ahx)
[2] = plain residues with an end cap or a label only (N-terminal biotin on a linker: ado-ado)
[3] = plain residues with an end cap or a label only (N-terminal biotin on a linker: ttds)

AHNAK1, Q09666, sequence (Q09666 4-100): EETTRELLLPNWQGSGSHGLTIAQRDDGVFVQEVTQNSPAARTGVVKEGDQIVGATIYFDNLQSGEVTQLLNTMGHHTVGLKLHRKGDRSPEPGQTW

pKd (AHNAK1, Q09666; [1]): below the threshold | pKd (APBA1_2, Q02410; [1]): 4.62 | pKd (APBA2_1, Q99767; [1]): below the threshold | pKd (APBA3_1, O96018; [1]): below the threshold | pKd (CARD11, Q9BXL7; [1]): below the threshold | pKd (CASK, O14936; [1]): below the threshold | pKd (GORASP1, Q9BQQ3; [1]): 4 | pKd (GRASP, Q7Z6J2; [1]): below the threshold | pKd (GRIP1_2, Q9Y3R0; [1]): below the threshold | pKd (GRIP1_4, Q9Y3R0; [1]): below the threshold | pKd (HTRA2, O43464; [1]): 3.68 | pKd (Inadl_3, Q8NI35; [1]): 3.86 | pKd (Inadl_5, Q8NI35; [1]): below the threshold | pKd (LNX1_2, Q8TBB1; [1]): below the threshold | pKd (LNX2_2, Q8N448; [1]): 4.44 | pKd (MAGI2_5, Q86UL8; [1]): below the threshold | pKd (MAST1, Q9Y2H9; [1]): below the threshold | pKd (MPDZ_12, O75970; [1]): 4.4 | pKd (MPP7, Q5T2T1; [1]): below the threshold | pKd (NHERF3_3, Q5T2W1; [1]): below the threshold | pKd (PDZD7_3, Q9H5P4; [1]): 3.53 | pKd (PTPN13_1, Q12923; [1]): below the threshold | pKd (RADIL, Q96JH8; [1]): 4.46 | pKd (TJP1_2, Q07157; [1]): below the threshold
Binder: AKPQPVDSWV [ARVCF, O00192]

pKd (AHNAK1, Q09666; [2]): below the threshold | pKd (APBA1_2, Q02410; [2]): below the threshold | pKd (APBA2_1, Q99767; [2]): below the threshold | pKd (APBA3_1, O96018; [2]): below the threshold | pKd (CARD11, Q9BXL7; [2]): below the threshold | pKd (CASK, O14936; [2]): below the threshold | pKd (GORASP1, Q9BQQ3; [2]): 3.52 | pKd (GRASP, Q7Z6J2; [2]): below the threshold | pKd (GRIP1_2, Q9Y3R0; [2]): below the threshold | pKd (GRIP1_4, Q9Y3R0; [2]): below the threshold | pKd (HTRA2, O43464; [2]): below the threshold | pKd (Inadl_3, Q8NI35; [2]): below the threshold | pKd (Inadl_5, Q8NI35; [2]): below the threshold | pKd (LNX1_2, Q8TBB1; [2]): below the threshold | pKd (LNX2_2, Q8N448; [2]): below the threshold | pKd (MAGI2_5, Q86UL8; [2]): below the threshold | pKd (MAST1, Q9Y2H9; [2]): 3.49 | pKd (MPDZ_12, O75970; [2]): below the threshold | pKd (MPP7, Q5T2T1; [2]): below the threshold | pKd (NHERF3_3, Q5T2W1; [2]): below the threshold | pKd (PDZD7_3, Q9H5P4; [2]): below the threshold | pKd (PTPN13_1, Q12923; [2]): below the threshold | pKd (RADIL, Q96JH8; [2]): below the threshold | pKd (TJP1_2, Q07157; [2]): 3.72
Binder: PDSYHRRDFW [U2AF2, P26368]

pKd (AHNAK1, Q09666; [3]): below the threshold | pKd (APBA1_2, Q02410; [3]): 4.23 | pKd (APBA2_1, Q99767; [3]): below the threshold | pKd (APBA3_1, O96018; [3]): below the threshold | pKd (CARD11, Q9BXL7; [3]): below the threshold | pKd (CASK, O14936; [3]): below the threshold | pKd (GORASP1, Q9BQQ3; [3]): below the threshold | pKd (GRASP, Q7Z6J2; [3]): below the threshold | pKd (GRIP1_2, Q9Y3R0; [3]): below the threshold | pKd (GRIP1_4, Q9Y3R0; [3]): below the threshold | pKd (HTRA2, O43464; [3]): below the threshold | pKd (Inadl_3, Q8NI35; [3]): 3.58 | pKd (Inadl_5, Q8NI35; [3]): below the threshold | pKd (LNX1_2, Q8TBB1; [3]): below the threshold | pKd (LNX2_2, Q8N448; [3]): 4.13 | pKd (MAGI2_5, Q86UL8; [3]): below the threshold | pKd (MAST1, Q9Y2H9; [3]): 4.33 | pKd (MPDZ_12, O75970; [3]): below the threshold | pKd (MPP7, Q5T2T1; [3]): below the threshold | pKd (NHERF3_3, Q5T2W1; [3]): below the threshold | pKd (PDZD7_3, Q9H5P4; [3]): 4.11 | pKd (PTPN13_1, Q12923; [3]): below the threshold | pKd (RADIL, Q96JH8; [3]): below the threshold | pKd (TJP1_2, Q07157; [3]): below the threshold
Binder: GRLLGLETNV [ARHGEF26, Q96DR7]

pKd (AHNAK1, Q09666; [3]): below the threshold | pKd (APBA1_2, Q02410; [3]): below the threshold | pKd (APBA2_1, Q99767; [3]): below the threshold | pKd (APBA3_1, O96018; [3]): below the threshold | pKd (CARD11, Q9BXL7; [3]): below the threshold | pKd (CASK, O14936; [3]): below the threshold | pKd (GORASP1, Q9BQQ3; [3]): below the threshold | pKd (GRASP, Q7Z6J2; [3]): below the threshold | pKd (GRIP1_2, Q9Y3R0; [3]): below the threshold | pKd (GRIP1_4, Q9Y3R0; [3]): below the threshold | pKd (HTRA2, O43464; [3]): below the threshold | pKd (Inadl_3, Q8NI35; [3]): below the threshold | pKd (Inadl_5, Q8NI35; [3]): below the threshold | pKd (LNX1_2, Q8TBB1; [3]): below the threshold | pKd (LNX2_2, Q8N448; [3]): below the threshold | pKd (MAGI2_5, Q86UL8; [3]): below the threshold | pKd (MAST1, Q9Y2H9; [3]): below the threshold | pKd (MPDZ_12, O75970; [3]): below the threshold | pKd (MPP7, Q5T2T1; [3]): below the threshold | pKd (NHERF3_3, Q5T2W1; [3]): below the threshold | pKd (PDZD7_3, Q9H5P4; [3]): 4.57 | pKd (PTPN13_1, Q12923; [3]): below the threshold | pKd (RADIL, Q96JH8; [3]): below the threshold | pKd (TJP1_2, Q07157; [3]): below the threshold
Binder: QRPYRRESEI [KCNJ12, Q14500]

pKd (AHNAK1, Q09666; [3]): below the threshold | pKd (APBA1_2, Q02410; [3]): below the threshold | pKd (APBA2_1, Q99767; [3]): below the threshold | pKd (APBA3_1, O96018; [3]): below the threshold | pKd (CARD11, Q9BXL7; [3]): below the threshold | pKd (CASK, O14936; [3]): below the threshold | pKd (GORASP1, Q9BQQ3; [3]): below the threshold | pKd (GRASP, Q7Z6J2; [3]): below the threshold | pKd (GRIP1_2, Q9Y3R0; [3]): below the threshold | pKd (GRIP1_4, Q9Y3R0; [3]): below the threshold | pKd (HTRA2, O43464; [3]): below the threshold | pKd (Inadl_3, Q8NI35; [3]): 4.36 | pKd (Inadl_5, Q8NI35; [3]): below the threshold | pKd (LNX1_2, Q8TBB1; [3]): 3.73 | pKd (LNX2_2, Q8N448; [3]): 4.66 | pKd (MAGI2_5, Q86UL8; [3]): 4.45 | pKd (MAST1, Q9Y2H9; [3]): 4.38 | pKd (MPDZ_12, O75970; [3]): below the threshold | pKd (MPP7, Q5T2T1; [3]): below the threshold | pKd (NHERF3_3, Q5T2W1; [3]): below the threshold | pKd (PDZD7_3, Q9H5P4; [3]): 5.61 | pKd (PTPN13_1, Q12923; [3]): below the threshold | pKd (RADIL, Q96JH8; [3]): 4.08 | pKd (TJP1_2, Q07157; [3]): below the threshold
Binder: NPDALPETLV [ARHGAP6, O43182]

From PMC9482650, “Quantitative fragmentomics allow affinity mapping of interactomes” (Nature Communications, 2022)
